Assay: soluble on expression in E. coli; label from the status in PepcDB or PDB records

With “MAVPPTYADLGKSARDVFNKGYGFGLVKLEVKTKSSSGVEFTSSGSSNTDTGKASGNLETKYKMKETGLTFTQKWNTDNTLGTEVALEDKLAKGLKLSLDTTFVPNTGKKSAKLKTSYKRDYANLGIDIDLDLAGPTIYGWGVLGYQGWLAGYQMAFDTAKSRLAQNNFALGYTAGDFQLHTNVNDGTEFGGSVYQKVSKDVETSVSLAWSAGSNNTRFGIGAKYQLDSNTTISAKVNNASLIGVGYTQTLRPGVKLTLSALVNGKNFSAGGHKVGLGFELEA” the “soluble on expression in E. coli” value was “not soluble”.

With “MANGTVLHFRFNVKQIRAKIVRKSYRFFPNDTAGHIRNMHDTMNKIFENSPPAFSYKPIETLNKCIAKVKSDVCHSTGGICKAAMDNVTNWVYNTTEGLFTTGTRLIV” the “soluble on expression in E. coli” value was “not soluble”.

With “MFRKESTILVLGSKVRGAQPGHVLRWRLEHALELSRHTTGPIVVSGKGEAYVMDDWLIRHGVDYRRLIVEPEATSTNENIENAHALLPDTHEWLVVTSDFHKLRTLAWARHLGVPIRVSSAVTKPPFRVNNFVRECFALPHSLLRIAWRRLLAAAALEHHHHHH” the “soluble on expression in E. coli” value was “not soluble”.

With “MAAPASSATLPSVLQLTANTSAGGKRPSRAVTMPALKQAAKAAAAAPSPSPSFHVFADLPDHLLCSPDNSVWVYAQHTLSFLTSEAAAQAKLGRKVQRMMREAQRQYDISCAFFHSMSSDEQMAEVLRVGSGGGALSLPPAMTAATGTPAKSDRKRLTGVHRALRDAWPTWRGPNMSDAANSLTAREVGGAGESESSENRYSAGLRVNIVLDIVASRKTLRTVPLRSRPYRLAEYLYQLVMQPSATQRATAAPALGDMASHVRSLIIGISDADTTLVGCHIVCPYRHLTSPTPMMMRLRRAIEGAADQERARALAAAEAANTTVSGLDTQWQASSAAAAAEAAASDAAPSPLRSLVASHLAHYRRVDALFPAPYVRVPPQSLEQIDQNRLILCTPGKLLDG” the “soluble on expression in E. coli” value was “not soluble”.

With “MGHHHHHHSHMVLLHVKRGDESQFLLQAPGSTELEELTVQVARVYNGRLKVQRLCSEMEELAEHGIFLPPNMQGLTDDQIEELKLKDEWGEKCVPSGGAVFKKDDIGRRNGQAPNEKMKQVLKKTIEEAKAIISKKQVEAGVCVTMEMVKDALDQLRGAVMIVYPMGLPPYDPIRMEFENKEDLSGTQAGLNVIKEAEAQLWWAAKELRRTKKLSDYVGKNEKTKIIAKIQQRGQGAPAREPIISSEEQKQLMLYYHRRQEELKRLEENDDDAYLNSPWADNTALKRHFHGVKDIKWRPR” the “soluble on expression in E. coli” value was “not soluble”.

For “SKKVIGKKRAHAEDDELDPMDPSSYSDAPRGGWVVGLKGVQPRAADTTASTGIFFKFQITDLTKPDEKIEVLTKRDQIVFQGPLFQQRPYPSPGAVLRRNAEVASSQKKKPNSQFTEITKRGDGSDGLGDAD”, the “soluble on expression in E. coli” value was “soluble”.

For “GPGSMKPSFYAVAVGKARGIYSTWAQCSEQVTGYPGCIYKGFRTLDEARSFLAAHPLPSTGSAVSLGGGSSSSVAAPYPSSSEHAALGSNYFKGRLKRETREDLLAGEESVAERQARRRRADHAQIAVAPPELSSMSASLSAATPSTTASKPLATTTTTSSPGAFEVVYVDGACSHNGTSQARAGYGGYYGSMSDPRNFSCPVPLTESQTNNRGEVRAVIHAIVQAFVDAGAPADALEATHLVDPSAWRLVDLTRPLPHLIIYTDSRYVIDGLTRYAKKWVQNGFVLSTNEPVQNQDLWRQLIRLRDRYNTLYARQQHDQQRACQWGDGHHSEADLAQLVRYTCQNARNDKSEGVELIHVRGHSKVHGNEMADSLAVMGSRLHRS”, the “soluble on expression in E. coli” value was “soluble”.

With “MGSDKIHHHHHHMKQSKKIIITCAVTGSIHTPTMSPYLPITPEEIVKEGVAAAEAGAAMLHLHARDPLNGRPSQDPDLFMRFLPQLKERTDAILNITTGGGLGMSLDERLAPARAARPEVASMNMGSLNFNISQAAAKFDTFKFDWERPYLAGTRDFILSNTFSQIERGMTELGASGTRFEFECYDVGHLYNLAHFVDRKLVEPPFFLQCVFGILGGIGADPENLLHMRTIADRLFGQDYYLSVLAAGRHQMPFVTMSAILGGNVRVGLEDSLYSGKGQLATSNAEQVRKIRRIIEELSLDIATPDEARAMLKTKGANETSF” the “soluble on expression in E. coli” value was “not soluble”.

In the case of “MRKKISIIGAGFVGSTTAHWLAAKELGDIVLLDIVEGVPQGKALDLYEASPIEGFDVRVTGTNNYADTANSDVIVVTSGAPRKPGMSREDLIKVNADITRACISQAAPLSPNAVIIMVNNPLDAMTYLAAEVSGFPKERVIGQAGVLDAARYRTFIAMEAGVSVKDVQAMLMGGHGDEMVPLPRFSTISGIPVSEFIAPDRLAQIVERTRKGGGEIVNLLKTGSAYYAPAAATAQMVEAVLKDKKRVMPVAAYLTGQYGLNDIYFGVPVILGAGGVEKILELPLNEEEMALLNASAKAVRATLDTLKSL”, the “soluble on expression in E. coli” value was “soluble”.

For “MSEEISLSAEFIDRVKASVKPHWGKLGWVTYKRTYARWLPEKGRSENWDETVKRVVEGNINLDPRLQDSPSLELKQSLTEEAERLYKLIYGLGATPSGRNLWISGTDYQRRTGDSLNNCWFVAIRPQKYGDSKIVPSYLGKQEKAVSMPFSFLFDELMKGGGVGFSVARSNISQIPRVDFAIDLQLVVDETSESYDASVKVGAVGKNELVQDADSIYYRLPDTREGWVLANALLIDLHFAQTNPDRKQKLILDLSDIRPYGAEIHGFGGTASGPMPLISMLLDVNEVLNNKAGGRLTAVDAADICNLIGKAVVAGNVRRSAELALGSNDDQDFISMKQDQEKLMHHRWASNNSVAVDSAFSGYQPIAAGIRENGEPGIVNLDLSKNYGRIVDGYQAGIDGDVEGTNPCGEISLANGEPCNLFEVFPLIAEEQGWDLQEVFALAARYAKRVTFSPYDWEISREIIQKNRRIGISMSGIQDWLLTRLGNRVVTGFKDDFDPETHEAIKVPVYDKRAIKMVDQLYKAVVKADQDYSKTLGCNESIKHTTVKPSGTVAKLAGASEGMHFHYGAYLIQRIRFQDSDPLLPALKACGYRTEADIYTENTTCVEFPIKAVGADNPNFASAGTVSIAEQFATQAFLQTYWSDNAVSCTITFQDSEGDQVESLLRQYRFITKSTSLLPYFGGSLQQAPKEPIDKETYEKRSQEITGNVEEVFSQLNSDVKDLELVDQTDCEGGACPIK”, the “soluble on expression in E. coli” value was “soluble”.

In the case of “MLQVTGIPDACDNLAPIPMECDAPFLSIKGELPRELNGTLYRNGANPQFVSPNAHWFFGDGMLHAFHLENGRASYRNRWVRTPKWLAEHEAGRPLYGEFNLKLPDAPRSVPDDGNVANTNIVFHAGRLLALEEAHLPMQIERDTLETRCYCDYGGALKGPFTAHPKIDPVTGEMLFFGYNASGPLTRTMSFGAIDASGNVTRLEHFKAPFAAMVHDFIVTEHHVLFPILPLTGSIWRAMRGRPPYAWDPRKGSYVGVMKRSGSTRDVRWFRGEACFVFHVMNAWEDGTRIVADVMQSEEAPLFTHPDGRRTDPEKGRARLCRWSFDLAGNTNAFKRSYLDEISGEFPRIDERRAGLRSGHGWYACASPETPMLGMLTGLVHVDGNGHRRTRYLLPTGDTIGEPVFVPRAADANEAEGWLLAVVWRGCENRSDLAVFNATDIAAGPIALVQLGHRIPDGFHGNWVPAGAAALEHHHHHH”, the “soluble on expression in E. coli” value was “not soluble”.

In the case of “MQRKLKVTSLEPGTVVITEQAVDTCFKAEFEQIVLGKRVIRKTDLNKKLVQELLLCSAELSEFTTVVGNTMCTLDFYEGQGRLDGALCSYTEKDKQAYLEAAYAAGVRNIEMESSVFAAMCSACGLQAAVVCVTLLNRLEGDQISSPRNVLSEYQQRPQRLVSYFIKKKLSKA”, the “soluble on expression in E. coli” value was “not soluble”.

With “MKLSPREADGYFARPDAGKTGILIHGADAMRIALKRQQIIAALLGPGGEEEMRLTRMPGAELRKDAAQLLDAVKAVGFFPGPRVVFVEDCPETSAPAVLTALEDWQPGDAQIVVTAGQLKPSSKIRKAFETHPNAYAAGIYDDPPSRAEIERMLSAAGIRDVPPEPMTVLSDLARDLGPGDFAQTMEKLALYKLGDTAPLVLEDIAACAPRSTEAALDDVLNVVAEGKEGEIGPLIRRLQAQGTTPVSLCIGATRHFRTLYTCASAPGGPSQGIGALRPPVFGPRRDRILNQAQRWGARRLEAALTVLTDTDLALRSAGQSAPQMALVERAMIRLAWLSRSRLEHHHHHH” the “soluble on expression in E. coli” value was “not soluble”.

With “MLKRCNAKYSCEIIKEKRADGDDRMATIDLQKKSVKIVLEKKQLTKVTARVGLVLDITGSMRPLYKNGTVQNVVERILAVADQFDDNGLLDVWVYDNEFSRLKPVSEKDFSGYVDREILNNDRLHKFGRNDEPPVMKDVLRKYVTEEPSSYPAFIVFINDGGCKKSIKPIIEASSDKPVFWQFVGIGNGNFDFLNKLDTLEGRVIDNTNFLHIEEIDRISDDELYDALLAEFPFWLKEAKEKGIVREQEPPAEKPKKKGFFSRLFSKLEHHHHHH” the “soluble on expression in E. coli” value was “soluble”.

In the case of “MGSDKIHHHHHHMAVPLPVSARKDTVVPVLMYHDVSNHFHDPFTISPALFAAHMEWLHAAGYRAVTVGEALAGRGATAGKMVVITFDDGYASFLDYVHPLLLQYGFSAAISVIGSHVGTWLERDGRRPMLSWDEYRYLAARRVEVGCHAYHLHAIERLRHASADELAEDLELFQKTMAREMGRRATLLAWPYGIYTSERVQIARQAGFVHILTSNEGYVDDGTDPGAIPRLNIDNRLDLVSFSNYLRGE”, the “soluble on expression in E. coli” value was “not soluble”.

For “VGDFNYYASANWSCEQSKVLYKDEQKVPYEYLRTTGKPKGAIFGLVAEGFFTSQDEITKSPVIEGFNNIQPGDIKYKDQNNDGVINDFDKVMIGGDKPLSYFGIDLGFEWRGLEFSMFWQGVYNKDVLMSDWNLLEGFQTQGQVYGQAYENMLDRWTPETAATATFPRLSAGGNKYNQGNGWGSSFWLRSGNYIRLKNVSLGYNLPDSFCRNYLGGARVKVFVSGQNLFTKAANELVDPEVSFGNYPLQRCISTGINVKF”, the “soluble on expression in E. coli” value was “not soluble”.

For “AIAEKLSEWKKFRIDSDKNDWIEQVDISGAKSLYEKEAQDKPLRVLVLYGSLRQRSFTRCCAYEAARLLDHLGADVRVFDPTELPVKGQVEETHHKVQELRELALWSEAQFWCSPEMHGNVTGCFKNQIDWIPLSLGSVRPTQGRTLAICQVNGGSQSFNAVNTLRVLGRWMRMFTIPNQSSIPKAWQEFDEYNRMKPSPLRDRLVDVVEELVKFSLMLRDHSSFHCVCQKL”, the “soluble on expression in E. coli” value was “soluble”.

In the case of “MPVFHTRTIESILEPVAQQISHLVIMHEEGEVDGKAIPDLTAPVAAVQAAVSNLVRVGKETVQTTEDQILKRDMPPAFIKVENACTKLVQAAQMLQSDPYSVPARDYLIDGSRGILSGTSDLLLTFDEAEVRKIIRVCKGILEYLTVAEVVETMEDLVTYTKNLGPGMTKMAKMIDERQQELTHQEHRVMLVNSMNTVKELLPVLISAMKIFVTTKNSKNQGIEEALKNRNFTVEKMSAEINEIIRVLQLTSWDEDAWASKDTEAMKRALASIDSKLNQAKGWLRDPSASPGDAGEQAIRQILDEAGKVGELCAGKERREILGTCKMLGQMTDQVADLRARGQGSSPVAMQKAQQVSQGLDVLTAKVENAARKLEAMTNSKQSIAKKIDAAQNWLADPNGGPEGEEQIRGALAEARKIAELCDDPKERDDILRSLGEISALTSKLADLRRQGKGDSPEARALAKQVATALQNLQTKTNRAVANSRPAKAAVHLEGKIEQAQRWIDNPTVDDRGVGQAAIRGLVAEGHRLANVMMGPYRQDLLAKCDRVDQLTAQLADLAARGEGESPQARALASQLQDSLKDLKARMQEAMTQEVSDVFSDTTTPIKLLAVAATAPPDAPNREEVFDERAANFENHSGKLGATAEKAAAVGTANKSTVEGIQASVKTARELTPQVVSAARILLRNPGNQAAYEHFETMKNQWIDNVEKMTGLVDEAIDTKSLLDASEEAIKKDLDKCKVAMANIQPQMLVAGATSIARRANRILLVAKREVENSEDPKFREAVKAASDELSKTISPMVMDAKAVAGNISDPGLQKSFLDSGYRILGAVAKVREAFQPQEPDFPPPPPDLEQLRLTDELAPPKPPLPEGEVPPPRPPPPEEKDEEFPEQKAGEVINQPMMMAARQLHDEARKWSSKGNDIIAAAKRMALLMAEMSRLVRGGSGTKRALIQCAKDIAKASDEVTRLAKEVAKQCTDKRIRTNLLQVCERIPTISTQLKILSTVKATMLGRTNISDEESEQATEMLVHNAQNLMQSVKETVREAEAASIKIRTDAGFTLRWVRKTPWYQ”, the “soluble on expression in E. coli” value was “soluble”.

Reference: the DeepSol protein solubility set
